Test results: the domain aggregation screens of Martell et al. (2025)

Experiment: soluble fraction after stress (log2 fold change); higher = more stays soluble; pooled small domains, quantitative proteomics
Conditions: stress: pH 4
How it was run: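 Small protein domains from pooled custom libraries were exposed to pH 4, then quantified with high-throughput quantitative proteomics. The fold change in how much of each domain remains soluble is read as aggregation propensity. It is given as log2, with higher values meaning more stayed soluble.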

Sequence	soluble fraction (log2)
HMYGSLGEYELAAVQWIYGKGKITTRELSSLIGKGLTLSSKTLRGLAAKGILEWHGNSKNDPSQFYSLP	-0.196
HMLKTADAIASVLLTRIQAGEFSAGRLPAERALSEAFSTTRITLREALGKLEAQGMIYRELRRGWFIA	-1.3
HMNQTTYTVLYSGMDPADTGKVLTALNEMGVDARTQGEDTVLVPADRADEIRLELAAQGYPTS	-0.0312
HMKRQATLQIGSKRFGMDDLYFKFTVPFEDSEKLGTATIEAYNLSPATRNSIKKGMPIILNAGYEGDI	-0.103
HMIDQSVVVQYLSKLTNTPYLKTREITMGEPYMQFERGEIKFQEYVEDIRALLPGGDRIDADRLRDIWMNS	-0.721
HMDFDPDVPSREDILQAFRDSKPPLTVNALISEFGLSRDASIVGLERRMGAMQRDGQLEQTPSGWQLSV	0.144
HMDGTVRGKTTFQELLDWGVPQERIEAVLGGPIPAPGVVIKDYVTAQGKEFSAVRDALQAEVDAVLK	-0.229
HMDYGTATASAILYLEKIDPENPYLLLAKDTITTNPKMSVNFALKGIIESKKGEKEENLNKALEIMSSL	0.0949
HMSGSILVQVSATDLNIRKGPGTNYGTTGKYTGKGTFTIVETRSGQGSNAGWGKLKSGAGWISLDYAKR	-0.0233
HMGPDTVDRTRRFKWVDNEVVVNFGKNAGRTLRDLAENDPGFLRWIVRSDFSDEVRTIANDALMGKFPTRK	-0.151
HMPVYEEEVPAALDGQRLDRVVAMVTGLSRSEVGALLAAGAVTVDGTTPAKGSVRLAAGSIVSVTVS	-0.366
HMFKMRVNGKEVIGMAITAKPQANPIDVADEIKKFVIDANTKLPSTMKLEVLYDATGIFRASISEVIS	-0.86
HMFHGEGVQANNIQAYIVLKMAAVNGAEDALDTADEVSEKMSREDLETATQVLGQIFRKYLMELQSA	-1.12
HMISESLLDEIPGLGETRRNSLLREFGSVAMIRKASAEEIASRVRGIGAEFAAAIHDFLQTH	0.0801
HMVDETDVPTFTDMTLEEAQNEAKQRNLKLEITESPSDKEKDTILEQDPEPGKTVASGSTVKLTVSNGEE	0.138
HMDRSKREKEQQELMLKVQQIFDDNQQRFGAEKIRTVLAQNGVRVSVKRVSAIMQELNLRSIR	0.169
HMVSQKPKERELWFREQLELAGLRLDPHAISAINETLGNDTGRFPGIIDTLLSTYGAGKKLSYDDVVMFL	-1.8
HMTENIPPVKIEEMRQKWQDIVLLHGVTSGRKIKSGQATYIWLYRNDQNWLLTFNSRHLSQPQV	-0.263
HMKIEETLGKTAQVYIPIPQYLSGIGKVTLSVRGSLRELDAMTEEEKIPSNTIVRIVKVQDQVLFVKRA	-0.0641
HMKKIFIDAPLDTMITIPKDTTHHLLTVFRHKMEKPVLVGGSDGRTGVYQIQDVVDGEASAKLVGDIQ	0.318
HMGVQKGKDNALAVQQWIAERDATGDFGEYERRGIINRSALFDELGIPRSSMGSNDQIRQMIEAADVRWF	-0.663
HMNADLDIQNVNGNTPLWEAVMRYRGDGFFIEQLLKNGANPDIKNNYGVSPKSLARTIANYDVRRFFN	-0.333
HMAGTGKVNTGVANVRSGPGTNYEISGKIYADTEVSILETSNGWYKIKFGNLTGWMSGTVLDIK	-0.0124
HMLPNIKSEMEILGDNAKARLEAAELWSKKYLSNEAYDTMSKLATTADGVKAIEEIMNITKS	-0.274
HMGRFPSLTPVVIDALTAQYREHPGWTVQLHVDNLRVVLAANQTPLPSYPTIRRYLLAQGMRRQTRP	-0.176
HMQLTQEAIENLFKITTAKKFREELEKLVVTDSEKKAFAYFTVYHPKLKELPFAILKSVENYTGISI	-0.319
HMILSTNFFRHIVPKEYQTSYGTMKKWLTDHNVIGTNSIPQGIGYRIPTQGLSSTFSFKVVDVLPDR	≥ 0.43
HMRTDQYHYLAWKQVADELGIPFDEQVNERLRGVSRMASFDIILERYDGTMSDEEKIHWTDKKNEIYKSM	-1.68

Sequence	soluble fraction (log2)
HMQISDDGFILKIINEVVAENPKSISDYISGKEAAVGFLVGQIMKKTRGKANPKLVNEMLITELAKLKN	-0.393
HMKVSKNKIVKGMGFHHVALKAVDFDASFKFYTEGLGMKFYTSWGEGNGKIAMLDLGDGGILELFA	0.22
HMLQIGDEEFIENIVKQVIDENQKAVDDYKKGKEKVMAFLIGQVMKKTKGKVNSEIVEKTIKKL	-0.565
HMQMEYEKAIAYILDKIKSGELSIGSKLPAERVIADTLHIGRNSTREALSILHGMGMVDRVHGSGNYISEH	-0.111
HMSFDNIKVGYISETAGYVKGISLADANEYAKLNPDTEFIFIDGDEKVRFLTINEVNGLTPKNLLRSDP	-1.6
HMIFTPNGDRVNDVFEIEMGVKLEFQIIILNQQNQTVFKSADPDFKWDGTMLNGEPAPSGTYLYYFSAKD	0.22
HMALQDKYKELTDAATAAGVTDLQVREQDNVLYIDGTAPSGAVKDQLWAIYDKIDPNFVSGDLVLNVNVD	-0.49
HMRNQIRAVITPVPNQERYTVEMTIDDDAGNLLTLQMAAPDRQQAAEFAQRFQKHPEALYHAVLSVLL	-0.191
HMPSEAVQNIIGNVKSKRRVATIGQARGLASNVIKEGKFDNVSNTAMVNRLIDLGIISNSIGYQ	0.283
HMGSIEASFEEDVRRYLARKSMTTTEISKKMRQKRPDMSRDQLMTLLANAIKRIKPIKKKIKGTLYLSLE	0.259
HMGEDSEPVQVPDVTGQPLWEARRTLSSMGLKVLDDGGSGSVTAQMPSAGATLRNGGQMMLYTYDEALPE	0.033
HMNTLTKEDIQKAIDVIPIDFKSVVILNLVEGFSYKETAEILEIPIGTVMSRLHRGRKILQKLLWEYSSSK	-0.557
HMALDSQEVGYNIEARGARPVVAQLGKAGQFSAVENSIRLGDDNWIALAPKLAGGGNAGFTAGIKSALS	-0.293
HMIKSEERIQNIKEYILEFQFTYHRTPTMAQIAEAVGTVKSNVYKYLSEMEERGILTRNKREIEINDTIQ	-0.588
HMRPSGEAVNAAYRLLKGANPSGNEGDLIQRAQEVAAILPKLNRSSAAAFAKDAKANGLTQAETIALWKGS	0.163
HMALQDKYAELLTAANTMGVTNLAVAEKDGTLHVSGTAKSTADYDSLWALYDKIDPNMASGDLMMNI	-0.0324
HMNYNEKGEYTRTLTSGSETAVMTYRNFGETLDVALFKNGVQTDSLRLIKSEPGVLYRQSNGQFEKI	-0.0181
HMDNLKELDEILETYGKKKGYLITILQKAQDAYGYISIDIMNRISEFTGIKVAKIYGVATFYAQFRL	-0.651
HMNSKKRQAILESLRSVTDHPTAEMIYNRLKPEYPDLSLGTVYRNLAMFLEEGQVISVGTVDGQERYDAR	0.34
HMINVVDEVIKHLETNIISGFWAPGQKIDSEATLSKQLNVSRASIHTAIQQLIATGVLESFQGKGTFVRS	-0.226
HMSSEDTQSRDRARKELSNEMSRIMKRYGLDYQPRDNADDIMNRLKAAGADENTLAYVQEKLK	0.0559
HMTTGLETYPGKIAVVSDDFIDGEGRVQLDGALWRAKTKDHQQLKQGDHVTIVNVKGLTLTVMPDD	-0.0405
HMPFDWSAFDWKGWADEALAIIKTANQDQMNKWTEDNEKIIVQAETAAPDIYKTVGDEYDKKMESFN	0.0448
HMHNPSYDMSKDVDILVMKFRDYNNLTDDEARFLLDKAKDAYYNTGKEILSDNEYDTLEKSLGQE	-1.17
HMAQVRSTVERRENGTYTVELNLNDDVDNVMRLQLMVATKEMAEDLAQRFQKNPEQVYSQLVTALYG	-0.719
HMEQVPEAVGRRVRQARSDRGWTLDQLAERSEVSRRMIVNVEAGTSNASIATLLRLATALNVGLAELVA	-0.685
HMDVFTAKTASHIQELREKLGQQAVFGRSDVQNALGLKATRSSALLREMAEHGIIEPVTGYGKGRYHFRS	0.361
